US20210244739A1

Biological target: human protein kinase R (PKR) (human) (UniProt P19525)
Experiment: cell-based or functional assay

UniProt P19525, sequence (P19525 2-551 limits assumed): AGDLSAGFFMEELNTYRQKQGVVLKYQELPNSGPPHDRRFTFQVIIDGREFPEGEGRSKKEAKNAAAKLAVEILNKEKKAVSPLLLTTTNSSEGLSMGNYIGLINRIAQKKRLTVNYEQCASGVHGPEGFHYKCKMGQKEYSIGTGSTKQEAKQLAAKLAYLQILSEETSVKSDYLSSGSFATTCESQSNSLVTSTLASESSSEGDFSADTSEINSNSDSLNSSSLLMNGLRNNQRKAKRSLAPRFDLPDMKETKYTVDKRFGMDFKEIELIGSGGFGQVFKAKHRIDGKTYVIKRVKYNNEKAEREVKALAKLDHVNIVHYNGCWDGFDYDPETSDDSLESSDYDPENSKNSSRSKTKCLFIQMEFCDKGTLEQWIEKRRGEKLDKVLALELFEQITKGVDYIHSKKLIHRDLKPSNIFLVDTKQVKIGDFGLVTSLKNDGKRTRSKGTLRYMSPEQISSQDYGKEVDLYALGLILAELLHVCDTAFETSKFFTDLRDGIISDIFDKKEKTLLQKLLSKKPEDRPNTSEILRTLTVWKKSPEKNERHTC

## Yaba monkey tumor virus 012 (K3 ortholog)
  virus titre increase between 5 hpi and 48 hpi in HeLa cells: > 10 fold
